# Experimental data as given in article PMC8759595.
# Biological target: endogenous VAPB (COS-7 cells)
# Experiment: co-immunoprecipitation (anti-FLAG) with quantified immunoblot
# Conditions: COS-7 cell lysate; n = 5; parent: est. 1.0; read off a plot
row,Substance,ratio to parent
1,FLAG-ACBD4 (from UniProt Q8NC06) S166A; S169A; S171A,1.7
2,FLAG-ACBD4 (from UniProt Q8NC06) S166E; S169E; S171E,4.4

# Biological target: endogenous VAPB (COS-7 cells)
# Experiment: co-immunoprecipitation (Myc-TRAP) with quantified immunoblot
# Conditions: COS-7 cell lysate treated with λ-phosphatase before IP, relative to phosphatase-inhibitor sample; parent: est. 0.5; read off a plot
row,Substance,other: remaining VAPB binding (% of untreated) (% of untreated)
1,Myc-ACBD5 (from UniProt Q5T8D3-2) S259E; S261E; S263E,22

# Same assay, conditions: COS-7 cell lysate treated with λ-phosphatase before IP, relative to phosphatase-inhibitor sample; parent: est. 4.5; read off a plot
row,Substance,other: remaining VAPB binding (% of untreated) (% of untreated)
1,Myc-ACBD5 (from UniProt Q5T8D3-2) S259E,7.5
2,Myc-ACBD5 (from UniProt Q5T8D3-2) S261E,21
3,Myc-ACBD5 (from UniProt Q5T8D3-2) S263E,8

# Same assay, conditions: COS-7 cell lysate; at least three independent IPs; parent: est. 1.0; read off a plot
row,Substance,ratio to parent
1,Myc-ACBD5 (from UniProt Q5T8D3-2) S259A,0.81
2,Myc-ACBD5 (from UniProt Q5T8D3-2) S259A; S261A,0.3
3,Myc-ACBD5 (from UniProt Q5T8D3-2) S259A; S261A; S263A,0.15
4,Myc-ACBD5 (from UniProt Q5T8D3-2) S261A,0.35
5,Myc-ACBD5 (from UniProt Q5T8D3-2) S261A; S263A,0.22
6,Myc-ACBD5 (from UniProt Q5T8D3-2) S263A,0.42
7,Myc-ACBD5 (from UniProt Q5T8D3-2) T258A; S259A,0.53
